Assay results as given in paper PMC5749160, “Disruption of an RNA-binding hinge region abolishes LHP1-mediated epigenetic repression”.
Where a chain is given by its changes, count along the chain named.

How the values were obtained:
Conditions in all cases: protein: recombinant; tags: N-terminal GST (pGEX-4T-1); label: 5' Cy5; single-stranded
[1] = biological target: T1, GST-LHP1 W129C (Arabidopsis thaliana (Col-0 cDNA), UniProt Q946J8 1-445, W129C); experiment: EMSA; wild-type RNA-binding activity retained; EMSA: 20 mM HEPES-KOH pH 7.5, 100 mM KCl, 0.05% NP-40, 10 nM Cy5 probe (1 uL of 100 nM + 9 uL protein), 30 min room temperature; 1.6% TBE-agarose gel
T1 sequence: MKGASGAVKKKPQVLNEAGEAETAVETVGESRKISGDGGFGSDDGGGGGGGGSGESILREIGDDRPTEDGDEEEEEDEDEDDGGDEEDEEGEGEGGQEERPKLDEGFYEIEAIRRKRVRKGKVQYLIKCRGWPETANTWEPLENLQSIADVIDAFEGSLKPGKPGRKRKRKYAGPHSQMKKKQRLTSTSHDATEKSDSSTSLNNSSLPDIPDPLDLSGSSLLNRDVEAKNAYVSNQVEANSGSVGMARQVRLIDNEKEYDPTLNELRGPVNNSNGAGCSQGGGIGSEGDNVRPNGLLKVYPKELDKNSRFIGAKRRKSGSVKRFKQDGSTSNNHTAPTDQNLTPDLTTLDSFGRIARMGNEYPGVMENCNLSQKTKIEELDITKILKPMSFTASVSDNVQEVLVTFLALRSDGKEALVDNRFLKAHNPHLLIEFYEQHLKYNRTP

[2] = biological target: T2, GST-LHP1 KR33A (Arabidopsis thaliana (Col-0 cDNA), UniProt Q946J8 1-445, R166A;K167A;R168A;K169A;R170A;K171A;K180A;K181A;K182A;R184A;K195A;R224A;K229A;R2 …); experiment: EMSA; EMSA: 20 mM HEPES-KOH pH 7.5, 100 mM KCl, 0.05% NP-40, 10 nM Cy5 probe (1 uL of 100 nM + 9 uL protein), 30 min room temperature; 1.6% TBE-agarose gel
T2 sequence: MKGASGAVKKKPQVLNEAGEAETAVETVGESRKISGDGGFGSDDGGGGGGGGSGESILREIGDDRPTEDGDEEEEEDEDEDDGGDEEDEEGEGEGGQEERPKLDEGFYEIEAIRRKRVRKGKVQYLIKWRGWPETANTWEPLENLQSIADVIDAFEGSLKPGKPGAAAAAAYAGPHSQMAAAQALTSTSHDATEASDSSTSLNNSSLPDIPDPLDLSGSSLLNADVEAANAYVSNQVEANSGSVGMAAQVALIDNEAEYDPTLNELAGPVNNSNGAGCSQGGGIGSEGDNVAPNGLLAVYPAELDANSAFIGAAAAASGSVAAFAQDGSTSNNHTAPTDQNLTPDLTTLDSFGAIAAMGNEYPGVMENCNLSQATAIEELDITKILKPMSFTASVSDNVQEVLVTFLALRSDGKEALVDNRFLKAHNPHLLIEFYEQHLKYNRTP

[3] = biological target: T3, GST-LHP1 KR23A (Arabidopsis thaliana (Col-0 cDNA), UniProt Q946J8 1-445, R166A;K167A;R168A;K169A;R170A;K171A;K180A;K181A;K182A;R184A;K195A;R292A;K298A;K3 …); experiment: as above
T3 sequence: T2 sequence with A224R, A229K, A248R, A251R, A257K, A267R, A354R, A357R, A374K, A376K

## CUCCUCCGGCGAUAAGUACGCCUUUUCCUUACCUGGGUUU (ssRNA) [FLC 40-nt ssRNA]
[1]
  binding result: binds
[2]
  binding result: no binding
[3]
  binding result: no binding
